{"source": "patent US20210221899A1", "about": "(published 2021)", "key": {"rat NGF": {"biological_target": "T1, rat NGF (rat, UniProt P25427 122-241)", "T1 construct": "also called rN", "T1 sequence (P25427 122-241 limits assumed)": "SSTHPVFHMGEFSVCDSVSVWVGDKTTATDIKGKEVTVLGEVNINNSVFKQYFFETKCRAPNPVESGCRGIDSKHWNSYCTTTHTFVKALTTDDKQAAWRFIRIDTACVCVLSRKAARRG", "experiment": "SPR (Biacore), NGF amine-coupled on chip, antibody injected", "method": "(§1) Antibody binding affinities of the antibodies against canine NGF were determined by surface plasmon resonance (SPR) on a Biacore system (Biocore Life Sciences (GE Healthcare), Uppsala, Sweden). Immobilization of canine and rat NGF were obtained by amine coupling […] NGF using N-hydroxysuccinimide (NHS)/1-Ethyl-3-(3-dimethylaminopropyl) carbodiimide (EDC) chemistry. Chips were quenched with ethanolamine and the affinity with which all candidate mAbs bound to the immobilized NGF was evaluated. Various concentrations of canine and felinized anti-NGF antibodies were injected over the NGF surfaces while the association of the antibody to the antigen and the dissociation of the formed complex were monitored in real time. Kinetic analysis was performed to obtain the equilibrium dissociation constant (KD)."}, "canine NGF": {"biological_target": "T2, canine NGF (canine, UniProt Q29074 110-229 (pig entry), limits assumed)", "T2 construct": "The protein was secreted from CHO cells and purified; also called cNGF; canine β-NGF", "T2 chain": "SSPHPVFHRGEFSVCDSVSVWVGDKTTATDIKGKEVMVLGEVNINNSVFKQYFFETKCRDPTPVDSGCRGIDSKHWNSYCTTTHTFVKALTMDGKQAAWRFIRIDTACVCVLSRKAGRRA", "experiment": "SPR (Biacore), NGF amine-coupled on chip, antibody injected", "method": "as §1"}}, "data": [{"binder": "ZTS-205 (antibody, V domains shown, Felinized 48L2; also called fel48L2 1.1; fel48L21.1) VH: DVQLVESGGDLVKPGGSLRLTCVASGFTFSTYGINWVRQAPGKGLQWVAYISSGGSSTYYADPVKGRFTISRDNAKNMLYLQMNNLKTEDTATYYCAGSRYTYAYGGGYEFHFWGQGTLVTVSS VL: QAVLNQPSSVSGALGQRVTISCSGSTMDIDIFGVSWYQQIPGMAPKTIIDSDGDRPSGVPDRFSGSKSGSTGTLTITGLQAEDEADYYCQSGDSTLGALAIFGGGTHVTVLG", "values": [{"measurement": "Kd", "setting": "rat NGF", "value": 0.277, "unit": "nM"}, {"measurement": "koff", "setting": "rat NGF", "value": 0.00029, "unit": "s⁻¹"}, {"measurement": "kon", "setting": "rat NGF", "value": 672000, "unit": "M⁻¹ s⁻¹"}, {"measurement": "Kd", "setting": "canine NGF", "value": 0.111, "unit": "nM"}, {"measurement": "koff", "setting": "canine NGF", "value": "8.93e-05", "unit": "s⁻¹"}, {"measurement": "kon", "setting": "canine NGF", "value": 426000, "unit": "M⁻¹ s⁻¹"}]}]}
